± gives the uncertainty stated by the source.
B1: Transcription intermediary factor 1-beta, residues 620 to 671; numbered along this chain, Q13263 (parent)
chain: TLDDSATICRVCQKPGDLVMCNQCEFCFHLDCHLPALQDVPGEEWSCSLCHV

Variants of: B1
Assay: abundance fitness (aPCA) (normalised: wild type 0, dead -1); higher = more abundant; growth selection in yeast, the domain comes from the species named
Conditions: Homo sapiens

Abundance fitness: each site, then its substitutions
S5: M -0.267 ± 0.11, I -0.04 ± 0.17, T -0.193 ± 0.13, N -0.444 ± 0.36, P -0.18 ± 0.14, D -0.267 ± 0.43, W -0.307 ± 0.11, L -0.596 ± 0.12, C -0.157 ± 0.23, E -0.314 ± 0.1, G -0.308 ± 0.076, Q -0.215 ± 0.11, K -0.03 ± 0.12, F -0.227 ± 0.22, R -0.064 ± 0.077, V -0.381 ± 0.093
C9: Y -1 ± 0.21, K -0.802 ± 0.42, A -0.861 ± 0.15, N -0.469 ± 0.23, P -0.324 ± 0.11, T -0.926 ± 0.23, S -0.848 ± 0.14, Q -1.12 ± 0.48, G -0.931 ± 0.11, V -0.902 ± 0.14, I -0.955 ± 0.3, M -0.706 ± 0.32, W -0.905 ± 0.22, R -1.18 ± 0.2
T7: V -0.066 ± 0.088, N -0.176 ± 0.15, R 0.077 ± 0.11, K -0.022 ± 0.13, H -0.138 ± 0.14, L -0.41 ± 0.12, F -0.383 ± 0.12, I -0.013 ± 0.13, E 0.004 ± 0.13, Q -0.118 ± 0.27, M -0.143 ± 0.15, A -0.123 ± 0.098, G -0.207 ± 0.08, P -0.204 ± 0.19, D 0.024 ± 0.12, S -0.079 ± 0.09, Y 0.007 ± 0.15, W -0.429 ± 0.15, C -0.451 ± 0.16
C24: D -0.769 ± 0.27, N -1.19 ± 0.4, H -1.01 ± 0.24, V -1.08 ± 0.17, K -0.894 ± 0.27, F -0.965 ± 0.22, I -1.07 ± 0.36, P -0.928 ± 0.28, W -1.04 ± 0.19, T -0.842 ± 0.18, S -1 ± 0.17, A -0.666 ± 0.14, M -0.918 ± 0.25, G -0.541 ± 0.12, R -0.685 ± 0.099
D4: K 0.284 ± 0.16, N 0.074 ± 0.11, P -0.155 ± 0.12, M 0.083 ± 0.096, F -0.19 ± 0.15, Q -0.294 ± 0.17, A -0.141 ± 0.1, R 0.015 ± 0.072, S 0.016 ± 0.086, V 0.148 ± 0.093, L 0.135 ± 0.081, H -0.035 ± 0.26, G -0.219 ± 0.082, C 0.201 ± 0.1
L18: E -0.374 ± 0.14, Y -0.632 ± 0.24, C -0.317 ± 0.15, G -0.642 ± 0.12, W -0.834 ± 0.17, S -0.789 ± 0.15, T 0.162 ± 0.15, A -0.559 ± 0.13, I -0.371 ± 0.15, K -0.636 ± 0.23, F -0.697 ± 0.25, H -0.664 ± 0.4, P -0.729 ± 0.24, M -0.599 ± 0.25, R -0.889 ± 0.13, Q -0.483 ± 0.3, N -0.662 ± 0.23
Q13: V -0.518 ± 0.079, E 0.092 ± 0.093, D 0.144 ± 0.12, M -0.002 ± 0.1, G -0.016 ± 0.075, C 0.091 ± 0.13, F 0.042 ± 0.12, A -0.322 ± 0.082, I -0.265 ± 0.16, T -0.085 ± 0.11, R -0.025 ± 0.079, W -0.063 ± 0.1, K -0.032 ± 0.13, S 0.036 ± 0.088, H 0.062 ± 0.15, P -0.82 ± 0.16, L -0.084 ± 0.079, N 0.128 ± 0.17, Y -0.111 ± 0.12
C21: M -1.24 ± 0.35, P -0.697 ± 0.36, H -0.445 ± 0.25, G -0.871 ± 0.11, E -0.434 ± 0.16, D -0.575 ± 0.18, I -0.807 ± 0.29, S -0.968 ± 0.15, F -0.962 ± 0.26, N -0.565 ± 0.21, T -0.95 ± 0.27, A -0.995 ± 0.16, W -1.14 ± 0.26, Q -0.8 ± 0.35, L -0.837 ± 0.13, V -0.826 ± 0.11
K14: L -0.513 ± 0.46, F -0.424 ± 0.3, S -0.35 ± 0.26, N -0.408 ± 0.25
I8: H -0.123 ± 0.14, G -0.418 ± 0.078, F 0.087 ± 0.22, M 0.056 ± 0.11, C 0.083 ± 0.12, Y 0.077 ± 0.12, P -0.302 ± 0.13, Q 0.085 ± 0.15, V -0.095 ± 0.081, D -0.51 ± 0.13, A -0.099 ± 0.095, N -0.045 ± 0.17, K -0.107 ± 0.14, W -0.348 ± 0.11, E -0.065 ± 0.11, L 0.03 ± 0.092
C12: Y -1 ± 0.26
E25: K -0.228 ± 0.19, D -0.3 ± 0.26, F -0.113 ± 0.18, C -0.052 ± 0.16, H -0.578 ± 0.4, I -0.298 ± 0.21, A -0.227 ± 0.12, G -0.27 ± 0.1
M20: P 0.067 ± 0.17, R 0.003 ± 0.088, H -0.755 ± 0.32, F -0.192 ± 0.15, N -0.337 ± 0.17, Y -0.296 ± 0.19, G -0.29 ± 0.095, K -0.354 ± 0.2, I -0.379 ± 0.2, A -0.312 ± 0.12, W -0.73 ± 0.14, E -0.304 ± 0.12, S -0.112 ± 0.11, L -0.391 ± 0.11, C -0.225 ± 0.15, D -0.574 ± 0.45, V -0.322 ± 0.1
A6: L -0.202 ± 0.081, H -0.303 ± 0.17, P -0.234 ± 0.16, C -0.973 ± 0.21, Q -0.261 ± 0.13, V -0.35 ± 0.08, R -0.275 ± 0.11, D -0.274 ± 0.22, M -0.069 ± 0.19, S -0.223 ± 0.097, E 0.25 ± 0.12, W -0.86 ± 0.17
V19: T -0.314 ± 0.16, M -0.157 ± 0.15, F -0.311 ± 0.15, W 0 ± 0.12, P -0.943 ± 0.33, R -0.364 ± 0.11, A -0.58 ± 0.14, L -0.171 ± 0.1, E -0.519 ± 0.17, C -0.536 ± 0.21, Q -0.402 ± 0.27, G -0.852 ± 0.14, D 0.025 ± 0.33, S -0.613 ± 0.16, I 0.008 ± 0.23, N -0.556 ± 0.34, H 0.116 ± 0.3
Q23: K -0.113 ± 0.21, R -0.172 ± 0.12, D -0.234 ± 0.4, F -0.292 ± 0.26, N -0.014 ± 0.21, V -0.214 ± 0.1, P -0.93 ± 0.21, T -0.066 ± 0.17, W -0.383 ± 0.13, I -0.373 ± 0.21, L -0.199 ± 0.1, H -0.486 ± 0.29, M -0.371 ± 0.16, C -0.043 ± 0.13, S -0.089 ± 0.11, Y -0.336 ± 0.21, A -0.395 ± 0.12
P15: G -0.126 ± 0.09, Y -0.255 ± 0.2, D -0.233 ± 0.2, N -0.396 ± 0.25, F -0.787 ± 0.27, Q -0.559 ± 0.21, M -0.168 ± 0.24, H -0.132 ± 0.22, S -0.022 ± 0.1, I -0.359 ± 0.32, T -0.546 ± 0.17, A 0.005 ± 0.11, L -0.684 ± 0.15, C -0.646 ± 0.15, W -0.771 ± 0.18, K -0.193 ± 0.2, E -0.01 ± 0.14
N22: L -0.561 ± 0.11, I -0.316 ± 0.21, H -0.449 ± 0.23, T -0.182 ± 0.13, M -0.337 ± 0.16, F -0.281 ± 0.23, G -0.27 ± 0.098, R -0.11 ± 0.12, P -0.382 ± 0.19, Q -0.116 ± 0.18, C -0.092 ± 0.22, S -0.066 ± 0.12, K 0.05 ± 0.17, A -0.232 ± 0.11, E 0.094 ± 0.15
V11: K -0.162 ± 0.11, Y -0.515 ± 0.17, N -0.142 ± 0.15, I -0.064 ± 0.11, L 0.009 ± 0.078, Q -0.136 ± 0.12, A -0.131 ± 0.081, E -0.072 ± 0.12, M 0.059 ± 0.093, R -0.128 ± 0.088, P -0.779 ± 0.14, S -0.312 ± 0.084, G -0.221 ± 0.1, W -0.409 ± 0.1, C -0.39 ± 0.12, H -0.659 ± 0.22, D -0.484 ± 0.21
R10: D -0.108 ± 0.17, S 0.161 ± 0.13, P -0.301 ± 0.13, H 0.136 ± 0.2, C -0.363 ± 0.16, V -0.143 ± 0.098, K 0.206 ± 0.15, Y -0.257 ± 0.22, I -0.866 ± 0.28, F -0.271 ± 0.16, N 0.094 ± 0.18, M -0.113 ± 0.13, T -0.037 ± 0.13, Q -0.296 ± 0.13, E -0.476 ± 0.17, G -0.291 ± 0.1, A -0.327 ± 0.12, W -0.574 ± 0.14
G16: A -0.639 ± 0.15, W -0.791 ± 0.13, M -0.553 ± 0.2, C -1.11 ± 0.23, Y -0.879 ± 0.41, Q -0.477 ± 0.23, S -0.091 ± 0.14, I -0.534 ± 0.3, E -0.307 ± 0.19, T -0.754 ± 0.3, K -0.258 ± 0.32, P -0.945 ± 0.28, H -0.214 ± 0.17, R -0.389 ± 0.11, N 0.137 ± 0.26, L -0.432 ± 0.12, F -0.524 ± 0.31, V -0.827 ± 0.15, D 0.076 ± 0.29
D17: M -0.364 ± 0.21, T -0.074 ± 0.12, N -0.256 ± 0.2, F -0.099 ± 0.21, L -0.301 ± 0.12, K -0.018 ± 0.16, V -0.355 ± 0.11, W -0.522 ± 0.15, C -0.151 ± 0.16, R -0.062 ± 0.098, G 0.076 ± 0.1, H 0.01 ± 0.15, A -0.639 ± 0.19, E -0.119 ± 0.16, I -0.409 ± 0.24, S -0.004 ± 0.098, Y -0.512 ± 0.17, P -0.604 ± 0.15, Q -0.186 ± 0.2
D3: S -0.223 ± 0.11, V -0.487 ± 0.1, Q -0.603 ± 0.18, R -0.294 ± 0.096, W -0.302 ± 0.12, T -0.661 ± 0.15, N -0.112 ± 0.14

Source: the Human Domainome abundance scans (Beltran et al. 2025)
